Measurements taken from patent publication US8106168B2, “Metalloproteinase binding proteins” (Dyax Corp., priority 2005, dated 2012).
Each block holds one molecule with its values, some of them ahead of it.

Key:
MMP-14 [1] = biological target: T1, MMP-14 (Homo sapiens, UniProt P50281); assay: Selection and phage ELISA screening of anti-MMP-14 Fabs; format: binding; details: Fab from FAB310 phage display library
Outline: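 Phage ELISA screened 95 clones from each of rounds 2 and 3 against biotinylated MMP-14 (1 μg/ml) captured on streptavidin, in TRIS/CaCl2/NaCl pH 7.5. The clones came from Fab library selections on biotinylated MMP-14, either free or TIMP-2-complexed (500 nM round 1, 100 nM later rounds). Elution used 2.5 μM TIMP-2 followed by TEA.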

MMP-14 [2] = biological target: T1, MMP-14; assay: IC50 for MMP-14 inhibition by Fabs and IgGs; format: biochemical; details: Fab
Experimental: MMP-14 binding proteins can be characterized in assays that measure their modulatory activity toward MMP-14 or fragments thereof in vitro or in vivo. For example, MMP-14 can be combined with a substrate such as Mca-Pro-Leu-Ala-Cys(Mob)-Trp-Ala-Arg-Dap(Dnp)-NH2 under assay conditions permitting cleavage by MMP-14. The assay is performed in the absence of the MMP-14 binding protein, and in the presence of increasing concentrations of the MMP-14 binding protein. The concentration of binding protein at which 50% of the MMP-14 activity (e.g., binding to the substrate) is inhibited is the IC50 value (Inhibitory Concentration 50%) or EC50 (Effective Concentration 50%) value for that binding protein.

MMP-16 [3] = biological target: T2, MMP-16 (Homo sapiens, UniProt P51512); assay: Cross-reactivity of anti-MMP-14 IgGs, enzymatic activity: MMP-16; format: biochemical; details: 1 μM anti-MMP-14 IgG
T2 sequence (P51512 120-607): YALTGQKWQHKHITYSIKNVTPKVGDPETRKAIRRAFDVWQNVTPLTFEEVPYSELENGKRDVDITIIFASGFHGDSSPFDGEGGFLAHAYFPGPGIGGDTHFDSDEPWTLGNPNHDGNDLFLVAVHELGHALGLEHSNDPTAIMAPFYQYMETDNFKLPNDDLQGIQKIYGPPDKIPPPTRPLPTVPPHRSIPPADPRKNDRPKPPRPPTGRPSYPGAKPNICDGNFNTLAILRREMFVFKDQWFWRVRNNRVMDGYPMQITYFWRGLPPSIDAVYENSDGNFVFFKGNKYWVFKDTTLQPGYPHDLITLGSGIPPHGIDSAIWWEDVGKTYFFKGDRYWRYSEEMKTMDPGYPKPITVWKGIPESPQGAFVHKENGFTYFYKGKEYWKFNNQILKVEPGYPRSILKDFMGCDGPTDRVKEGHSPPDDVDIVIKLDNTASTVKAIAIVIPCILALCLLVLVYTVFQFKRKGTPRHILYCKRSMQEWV
Experimental: (§1) The cross-reactivity of exemplary anti-MMP-14 IgGs and Fabs with other human MMPs and TACE (TNF-alpha converting enzyme) was examined. MMP and TACE enzymatic activity was monitored in the absence and presence of 1 μM anti-MMP-14 IgG antibody. Inhibition (Y) of activity ranged from approximately 50-80% of the reaction rate observed in the absence of antibody. “X” indicates no inhibition was observed. Cross-reactivity was not determined for MMP-17 because protein activity could not be detected.
(§2) For the studies summarized in Table 12, six anti-MMP-14 IgGs were selected for cross-reactivity testings: M0043-G02, M0040-A06, M0037-D01, M037-C09, M0038-F01, M0033-H07.

MMP-24 [4] = biological target: T3, MMP-24 (Homo sapiens, UniProt Q9Y5R2); assay: Cross-reactivity of anti-MMP-14 IgGs, enzymatic activity: MMP-24; format: biochemical; details: 1 μM anti-MMP-14 IgG
T3 sequence (Q9Y5R2 156-645): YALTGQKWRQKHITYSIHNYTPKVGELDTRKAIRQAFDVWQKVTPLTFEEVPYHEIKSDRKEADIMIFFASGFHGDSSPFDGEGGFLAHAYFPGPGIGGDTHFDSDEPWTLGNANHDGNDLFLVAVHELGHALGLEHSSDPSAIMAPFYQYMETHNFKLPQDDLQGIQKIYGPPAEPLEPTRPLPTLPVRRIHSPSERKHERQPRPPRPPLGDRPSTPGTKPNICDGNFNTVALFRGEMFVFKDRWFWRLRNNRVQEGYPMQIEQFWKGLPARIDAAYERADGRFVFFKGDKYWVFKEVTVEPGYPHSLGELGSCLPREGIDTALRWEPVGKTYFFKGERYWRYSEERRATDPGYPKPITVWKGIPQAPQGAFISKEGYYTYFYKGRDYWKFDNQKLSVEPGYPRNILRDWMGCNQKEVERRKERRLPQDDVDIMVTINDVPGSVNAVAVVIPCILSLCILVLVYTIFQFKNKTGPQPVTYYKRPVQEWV
Experimental: as §1, §2

MMP-16 [5] = biological target: T2, MMP-16; assay: Cross-reactivity of Fabs and IgGs with MMP-16 (Example 8); format: biochemical; design: key to MMP-16 (cross-reactivity, class symbol): X: Does not inhibit MMP-16 at [I] = 100 nM level; details: 5 nM MMP16, 30 minutes at 30° C., 10 μM substrate
Experimental: For the studies summarized in Tables 13 and 14, 100 nM anti-MMP-14 Fab/IgG were incubated with 5 nM MMP16 for 30 minutes at 30° C., 10 μM of substrate was added, and the MMP-16 activity was measured.

MMP-16 [6] = biological target: T2, MMP-16; assay: Cross-reactivity of Fabs with MMP-16 (Example 9); format: biochemical; design: key: X: Do not inhibit MMP-16 or MMP-24 at [I] = 100 nM level; Y: partially inhibit at [I] = 100 nM level; details: Fab, 100 nM final inhibitor concentration, 5 nM MMP-16
Experimental: (§3) For the studies summarized in Table 15, 1 μM of anti-MMP-14 Fab/IgG (100 nM final inhibitor concentration) were incubated with 5 nM of MMP-16 or 5 nM of MMP-24 for 30 minutes at 30° C., 10 μM of substrate was added, and the MMP-16 activity was measured.

MMP-24 [7] = biological target: T3, MMP-24; assay: Cross-reactivity of Fabs with MMP-24 (Example 9); format: biochemical; design: key to MMP-24 (cross-reactivity, class symbol): X: Do not inhibit MMP-16 or MMP-24 at [I] = 100 nM level; Y: partially inhibit at [I] = 100 nM level; details: Fab, 100 nM final inhibitor concentration; 5 nM MMP-24
Experimental: as §3

[8] = tested on: activation of pro-MMP-2 by MMP-14 in PMA-activated HT-1080 cells; assay: Gelatin zymogram, pro-MMP-2 activation in HT-1080 cells; format: cell-based, human; details: gelatin zymography of conditioned media after 3 days; antibodies 10 μg/ml, GM6001 10 μM
Experimental: The ability of anti-MMP-14 IgGs to inhibit the activation of pro-MMP-2 by MMP-14 was examined by gelatin zymogram experiments performed with PMA-activated HT-1080 cells. M0033-H07 and M0038-F01 were tested for their ability to inhibit MMP-14 in this assay. HT1080 cells (well-known to express MMP-14 and MMP-2) were seeded at 5×10^5 cells/well at Day 0. […] HT-1080 cells cultured in the presence of 20 ng/ml of PMA were used as a positive control.
After 3 days of incubation, conditioned media were collected and gelatinolytic activities were analyzed by gelatin zymography as described previously (Maquoi et al, J Biol Chem 2000; 275:11368-78). When HT-1080 cells are activated with a phorbol ester, pro-MMP-2 is activated into MMP-2 (lane 1).

B1: M0037-C09: human antibody (Fab, IgG) that binds and inhibits MMP-14; HC SEQ ID NO: 150, LC SEQ ID NO: 151 (antibody, V domains shown)
VH: EVQLLESGGGLVQPGGSLRLSCAASGFTFSHYEMFWVRQAPGKGLEWVSSISPSGGQTHYADSVKGRFTISRDNSKNTLYLQMNSLRAEDTAVYYCATDRTYYDFWSGYGPLWYWGQGTLVTVSS
VL: QDIQMTQSPLSLPVTLGESASVSCRSSQSLLHENGHNYLDWYLQKPGQSPQLLIYLGSNRASGVPDRFSGSGSGTDFTLKISRVEAEDVGVYYCMQSLKTPPTFGPGTKVEIK
modifications: Synthetically generated peptide
- bind to human MMP-14 (MMP-14 [1]): bind to human MMP-14
- bind to and inhibit human MMP-14 (MMP-14 [2]): bind to and inhibit human MMP-14
- Cross reactivity: inhibition of MMP-16 activity (MMP-16 [3]): Y (Inhibition (Y) of activity ranged from approximately 50-80% of the reaction rate observed in the absence of antibody)
- Cross reactivity: inhibition of MMP-24 activity (MMP-24 [4]): Y (Inhibition (Y) of activity ranged from approximately 50-80% of the reaction rate observed in the absence of antibody)
- MMP-16 (cross-reactivity, class symbol) (MMP-16 [5]; Fab 100 nM): X
- MMP-16 (cross-reactivity, class symbol) (MMP-16 [5]; IgG 100 nM): X
- MMP-16 (cross-reactivity, class symbol) (MMP-16 [6]): X
- MMP-24 inhibition (MMP-24 [7]): Y 72% inhibition

B2: M0031-C02: human antibody (Fab, IgG) that binds and inhibits MMP-14; HC SEQ ID NO: 144, LC SEQ ID NO: 145 (antibody, V domains shown)
VH: EVQLLESGGGLVQPGGSLRLSCAASGFTFSPYPMGWVRQAPGKGLEWVSSIVSSGGLTLYADSVKGRFTISRDNSKNTLYLQMNSLRAEDTAVYYCARGGRLYDILTGQGAPFDYWGQGTLVTVSS
VL: QDIQMTQSPLSLPVTPGEPASISCRSSQSLLHSNGYYYLDWYLQKPGQSPQLLIYLGSYRASGVPDRFSGSGSGTDFTLKISSVEAEDVGVYYCMQALQTPLTFGGGTRVDIK
modifications: Synthetically generated peptide
- bind to human MMP-14 (MMP-14 [1]): bind to human MMP-14
- bind to and inhibit human MMP-14 (MMP-14 [2]): bind to and inhibit human MMP-14
- MMP-16 (cross-reactivity, class symbol) (MMP-16 [5]; Fab 100 nM): X
- MMP-16 (cross-reactivity, class symbol) (MMP-16 [5]; IgG 100 nM): X
- MMP-16 (cross-reactivity, class symbol) (MMP-16 [6]): X
- MMP-24 inhibition (MMP-24 [7]): Y 54% inhibition

B5: M0033-H07: human antibody (Fab, IgG) that binds and inhibits MMP-14; HC SEQ ID NO: 148, LC SEQ ID NO: 149 (antibody, V domains shown)
VH: EVQLLESGGGLVQPGGSLRLSCAASGFTFSVYGMVWVRQAPGKGLEWVSVISSSGGSTWYADSVKGRFTISRDNSKNTLYLQMNSLRAEDTALYYCARPFSRRYGVFDYWGQGTLVTVSS
VL: QDIQMTQSPSSLSASVGDRVTITCRASQGIRNFLAWYQQKPGKVPKLLVFGASALQSGVPSRFSGSGSGTDFTLTISGLQPEDVATYYCQKYNGVPLTFGGGTKVEIK
modifications: Synthetically generated peptide
- bind to human MMP-14 (MMP-14 [1]): bind to human MMP-14
- bind to and inhibit human MMP-14 (MMP-14 [2]): bind to and inhibit human MMP-14
- Cross reactivity: inhibition of MMP-16 activity (MMP-16 [3]): Y (Inhibition (Y) of activity ranged from approximately 50-80% of the reaction rate observed in the absence of antibody)
- Cross reactivity: inhibition of MMP-24 activity (MMP-24 [4]): Y (Inhibition (Y) of activity ranged from approximately 50-80% of the reaction rate observed in the absence of antibody)
- MMP-16 (cross-reactivity, class symbol) (MMP-16 [5]; Fab 100 nM): X
- MMP-16 (cross-reactivity, class symbol) (MMP-16 [5]; IgG 100 nM): X
- MMP-16 (cross-reactivity, class symbol) (MMP-16 [6]): X
- MMP-24 (cross-reactivity, class symbol) (MMP-24 [7]): X
- pro-MMP-2 activation by MMP-14 [8]: partly inhibited
- pro-MMP-9 expression [8]: No stimulation

Now from value to molecule, other results behind:

- bind to human MMP-14 (MMP-14 [1]): bind to human MMP-14
- bind to and inhibit human MMP-14 (MMP-14 [2]): bind to and inhibit human MMP-14
- MMP-16 (cross-reactivity, class symbol) (MMP-16 [5]; Fab 100 nM): X
- MMP-16 (cross-reactivity, class symbol) (MMP-16 [5]; IgG 100 nM): X
- MMP-16 (cross-reactivity, class symbol) (MMP-16 [6]): X
- MMP-24 inhibition (MMP-24 [7]): Y 71% inhibition
B3: M0037-D01: human antibody (Fab, IgG) that binds and inhibits MMP-14; HC SEQ ID NO: 152, LC SEQ ID NO: 153 (antibody, V domains shown)
VH: EVQLLESGGGLVQPGGSLRLSCAASGFTFSMYMMIWVRQAPGKGLEWVSSIYPSGGNTMYADSVKGRFTISRDNSKNTLYLQMNSLRAEDTAVYYCATGVLRYFDWDAGSGMDVWGQGTTVTVSSLC
VL: QDIQMTQSPSSLSASVGDRVTITCRASQGIRNDLGWYQQKPGKAPKRLIYVASSLQSGVPSRFSGSGSGTEFTLTISSLQPEDFATYYCLQHNSYPWTFGQGTKVEIK
modifications: Synthetically generated peptide
- Cross reactivity: inhibition of MMP-16 activity (MMP-16 [3]): Y (Inhibition (Y) of activity ranged from approximately 50-80% of the reaction rate observed in the absence of antibody)
- Cross reactivity: inhibition of MMP-24 activity (MMP-24 [4]): Y (Inhibition (Y) of activity ranged from approximately 50-80% of the reaction rate observed in the absence of antibody)

- bind to human MMP-14 (MMP-14 [1]): bind to human MMP-14
- bind to and inhibit human MMP-14 (MMP-14 [2]): bind to and inhibit human MMP-14
- MMP-16 (cross-reactivity, class symbol) (MMP-16 [5]; Fab 100 nM): X
- MMP-16 (cross-reactivity, class symbol) (MMP-16 [5]; IgG 100 nM): X
- MMP-16 (cross-reactivity, class symbol) (MMP-16 [6]): X
- MMP-24 (cross-reactivity, class symbol) (MMP-24 [7]): X
B4: M0038-E06: human antibody (Fab, IgG) that binds and inhibits MMP-14; HC SEQ ID NO: 154, LC SEQ ID NO: 155 (antibody, V domains shown)
VH: EVQLLESGGGLVQPGGSLRLSCAASGFTFSPYVMHWVRQAPGKGLEWVSSISPSGGWTYYADSVKGRFTISRDNSKNTLYLQMNSLRAEDMAVYYCARGTGAYGMDVWGQGTTVTVSS
VL: QDIQMTQSPGTLSLSPGDRATLSCGASQLVVSNYIAWYQQKPGQAPRLLMYAGSIRATGIPDRFSGSGSGTDFTLTISRLEPEDFAIYYCQQRSNWPWTFGQGTKVEIK
modifications: Synthetically generated peptide

- bind to human MMP-14 (MMP-14 [1]): bind to human MMP-14
- bind to and inhibit human MMP-14 (MMP-14 [2]): bind to and inhibit human MMP-14
- MMP-16 (cross-reactivity, class symbol) (MMP-16 [5]; Fab 100 nM): X
- MMP-16 (cross-reactivity, class symbol) (MMP-16 [5]; IgG 100 nM): X
- MMP-16 (cross-reactivity, class symbol) (MMP-16 [6]): X
- MMP-24 inhibition (MMP-24 [7]): Y 58% inhibition
B6: M0040-A11: human antibody (Fab, IgG) that binds and inhibits MMP-14; HC SEQ ID NO: 164, LC SEQ ID NO: 165 (antibody, V domains shown)
VH: EVQLLESGGGLVQPGGSLRLSCAASGFTFSHYVMFWVRQAPGKGLEWVSRIVPSGGATMYADSVKGRFTISRDNSKNTLYLQMNSLRAEDTAVYYCARDRPLYDSSGYVDYWGQGTLVTVSS
VL: QSALTQPPSASGSPGQSVTISCTGTSSDVGAYNYVSWYQQHPDKAPKLIIYNVNERPSGVPDRFSGSKSGNTASLTVSGLQAEDEADYYCTSYAGSNKIGVSGTGTKVTVL
modifications: Synthetically generated peptide
